According to publication PMC7367873, “Dissecting the sequence determinants for dephosphorylation by the catalytic subunits of phosphatases PP1 and PP2A” (Nature Communications, 2020):

B1: YTHDF2 (protein, UniProt Q9Y5A9 2-579, looked up)
YTH domain-containing family …: SASSLLEQRPKGQGNKVQNGSVHQKDGLNDDDFEPYLSPQARPNNAYTAMSDSYLPSYYSPSIGFSYSLGEAAWSTGGDTAMPYLTSYGQLSNGEPHFLPDAMFGQPGALGSTPFLGQHGFNFFPSGIDFSAWGNNSSQGQSTQSSGYSSNYAYAPSSLGGAMIDGQSAFANETLNKAPGMNTIDQGMAALKLGSTEVASNVPKVVGSAVGSGSITSNIVASNSLPPATIAPPKPASWADIASKPAKQQPKLKTKNGIAGSSLPPPPIKHNMDIGTWDNKGPVAKAPSQALVQNIGQPTQGSPQPVGQQANNSPPVAQASVGQQTQPLPPPPPQPAQLSVQQQAAQPTRWVAPRNRGSGFGHNGVDGNGVGQSQAGSGSTPSEPHPVLEKLRSINNYNPKDFDWNLKHGRVFIIKSYSEDDIHRSIKYNIWCSTEHGNKRLDAAYRSMNGKGPVYLLFSVNGSGHFCGVAEMKSAVDYNTCAGVWSQDKWKGRFDVRWIFVKDVPNSQLRHIRLENNENKPVTNSRDTQEVPLEKAKQVLKIIASYKHTTSIFDDFSHYEKRQEEEESVKKERQGRGK
B2: ALDH18A1 (protein, UniProt P54886 1-795, looked up)
Delta-1-pyrroline-5-carboxylat …: MLSQVYRCGFQPFNQHLLPWVKCTTVFRSHCIQPSVIRHVRSWSNIPFITVPLSRTHGKSFAHRSELKHAKRIVVKLGSAVVTRGDECGLALGRLASIVEQVSVLQNQGREMMLVTSGAVAFGKQRLRHEILLSQSVRQALHSGQNQLKEMAIPVLEARACAAAGQSGLMALYEAMFTQYSICAAQILVTNLDFHDEQKRRNLNGTLHELLRMNIVPIVNTNDAVVPPAEPNSDLQGVNVISVKDNDSLAARLAVEMKTDLLIVLSDVEGLFDSPPGSDDAKLIDIFYPGDQQSVTFGTKSRVGMGGMEAKVKAALWALQGGTSVVIANGTHPKVSGHVITDIVEGKKVGTFFSEVKPAGPTVEQQGEMARSGGRMLATLEPEQRAEIIHHLADLLTDQRDEILLANKKDLEEAEGRLAAPLLKRLSLSTSKLNSLAIGLRQIAASSQDSVGRVLRRTRIAKNLELEQVTVPIGVLLVIFESRPDCLPQVAALAIASGNGLLLKGGKEAAHSNRILHLLTQEALSIHGVKEAVQLVNTREEVEDLCRLDKMIDLIIPRGSSQLVRDIQKAAKGIPVMGHSEGICHMYVDSEASVDKVTRLVRDSKCEYPAACNALETLLIHRDLLRTPLFDQIIDMLRVEQVKIHAGPKFASYLTFSPSEVKSLRTEYGDLELCIEVVDNVQDAIDHIHKYGSSHTDVIVTEDENTAEFFLQHVDSACVFWNASTRFSDGYRFGLGAEVGISTSRIHARGPVGLEGLLTTKWLLRGKDHVVSDFSEHGSLKYLHENLPIPQRNTN
B3: G3BP2 (protein, UniProt Q9UN86 2-482, looked up)
Ras GTPase-activating …: VMEKPSPLLVGREFVRQYYTLLNKAPEYLHRFYGRNSSYVHGGVDASGKPQEAVYGQNDIHHKVLSLNFSECHTKIRHVDAHATLSDGVVVQVMGLLSNSGQPERKFMQTFVLAPEGSVPNKFYVHNDMFRYEDEVFGDSEPELDEESEDEVEEEQEERQPSPEPVQENANSGYYEAHPVTNGIEEPLEESSHEPEPEPESETKTEELKPQVEEKNLEELEEKSTTPPPAEPVSLPQEPPKAFSWASVTSKNLPPSGTVSSSGIPPHVKAPVSQPRVEAKPEVQSQPPRVREQRPRERPGFPPRGPRPGRGDMEQNDSDNRRIIRYPDSHQLFVGNLPHDIDENELKEFFMSFGNVVELRINTKGVGGKLPNFGFVVFDDSEPVQRILIAKPIMFRGEVRLNVEEKKTRAARERETRGGGDDRRDIRRNDRGPGGPRGIVGGGMMRDRDGRGPPPRGGMAQKLGSGRGTGQMEGRFTGQRR
B4: RPN1 (protein, UniProt P04843 24-607, looked up)
Dolichyl-diphosphooligosacchar …: ASSEAPPLINEDVKRTVDLSSHLAKVTAEVVLAHLGGGSTSRATSFLLALEPELEARLAHLGVQVKGEDEEENNLEVRETKIKGKSGRFFTVKLPVALDPGAKISVIVETVYTHVLHPYPTQITQSEKQFVVFEGNHYFYSPYPTKTQTMRVKLASRNVESYTKLGNPTRSEDLLDYGPFRDVPAYSQDTFKVHYENNSPFLTITSMTRVIEVSHWGNIAVEENVDLKHTGAVLKGPFSRYDYQRQPDSGISSIRSFKTILPAAAQDVYYRDEIGNVSTSHLLILDDSVEMEIRPRFPLFGGWKTHYIVGYNLPSYEYLYNLGDQYALKMRFVDHVFDEQVIDSLTVKIILPEGAKNIEIDSPYEISRAPDELHYTYLDTFGRPVIVAYKKNLVEQHIQDIVVHYTFNKVLMLQEPLLVVAAFYILFFTVIIYVRLDFSITKDPAAEARMKVACITEQVLTLVNKRIGLYRHFDETVNRYKQSRDISTLNSGKKSLETEHKALTSEIALLQSRLKTEGSDLCDRVSEMQKLDAQVKELVLKSAVEAERLVAGKLKKDTYIENEKLISGKRQELVTKIDHILDAL
B5: ZC3HAV1 (protein, UniProt Q7Z2W4 2-902, looked up)
Zinc finger CCCH-type …: ADPEVCCFITKILCAHGGRMALDALLQEIALSEPQLCEVLQVAGPDRFVVLETGGEAGITRSVVATTRARVCRRKYCQRPCDNLHLCKLNLLGRCNYSQSERNLCKYSHEVLSEENFKVLKNHELSGLNKEELAVLLLQSDPFFMPEICKSYKGEGRQQICNQQPPCSRLHICDHFTRGNCRFPNCLRSHNLMDRKVLAIMREHGLNPDVVQNIQDICNSKHMQKNPPGPRAPSSHRRNMAYRARSKSRDRFFQGSQEFLASASASAERSCTPSPDQISHRASLEDAPVDDLTRKFTYLGSQDRARPPSGSSKATDLGGTSQAGTSQRFLENGSQEDLLHGNPGSTYLASNSTSAPNWKSLTSWTNDQGARRKTVFSPTLPAARSSLGSLQTPEAVTTRKGTGLLSSDYRIINGKSGTQDIQPGPLFNNNADGVATDITSTRSLNYKSTSSGHREISSPRIQDAGPASRDVQATGRIADDADPRVALVNDSLSDVTSTTSSRVDDHDSEEICLDHLCKGCPLNGSCSKVHFHLPYRWQMLIGKTWTDFEHMETIEKGYCNPGIHLCSVGSYTINFRVMSCDSFPIRRLSTPSSVTKPANSVFTTKWIWYWKNESGTWIQYGEEKDKRKNSNVDSSYLESLYQSCPRGVVPFQAGSRNYELSFQGMIQTNIASKTQKDVIRRPTFVPQWYVQQMKRGPDHQPAKTSSVSLTATFRPQEDFCFLSSKKYKLSEIHHLHPEYVRVSEHFKASMKNFKIEKIKKIENSELLDKFTWKKSQMKEEGKLLFYATSRAYVESICSNNFDSFLHETHENKYGKGIYFAKDAIYSHKNCPYDAKNVVMFVAQVLVGKFTEGNITYTSPPPQFDSCVDTRSNPSVFVIFQKDQVYPQYVIEYTEDKACVIS
B6: SERBP1 (protein, UniProt Q8NC51 2-408, looked up)
SERPINE1 mRNA-binding protein …: PGHLQEGFGCVVTNRFDQLFDDESDPFEVLKAAENKKKEAGGGGVGGPGAKSAAQAAAQTNSNAAGKQLRKESQKDRKNPLPPSVGVVDKKEETQPPVALKKEGIRRVGRRPDQQLQGEGKIIDRRPERRPPRERRFEKPLEEKGEGGEFSVDRPIIDRPIRGRGGLGRGRGGRGRGMGRGDGFDSRGKREFDRHSGSDRSSFSHYSGLKHEDKRGGSGSHNWGTVKDELTESPKYIQKQISYNYSDLDQSNVTEETPEGEEHHPVADTENKENEVEEVKEEGPKEMTLDEWKAIQNKDRAKVEFNIRKPNEGADGQWKKGFVLHKSKSEEAHAEDSVMDHHFRKPANDITSQLEINFGDLGRPGRGGRGGRGGRGRGGRPNRGSRTDKSSASAPDVDDPEAFPALA
B7: MGST1 (protein, UniProt P10620 1-155, looked up)
Microsomal glutathione …: MVDLTQVMDDEVFMAFASYATIILSKMMLMSTATAFYRLTRKVFANPEDCVAFGKGENAKKYLRTDDRVERVRRAHLNDLENIIPFLGIGLLYSLSGPDPSTAILHFRLFVGARIYHTIAYLTPLPQPNRALSFFVGYGVTLSMAYRLLKSKLYL
B8: ABCG2 (protein, UniProt Q9UNQ0 1-655, looked up)
Broad substrate specificity …: MSSSNVEVFIPVSQGNTNGFPATASNDLKAFTEGAVLSFHNICYRVKLKSGFLPCRKPVEKEILSNINGIMKPGLNAILGPTGGGKSSLLDVLAARKDPSGLSGDVLINGAPRPANFKCNSGYVVQDDVVMGTLTVRENLQFSAALRLATTMTNHEKNERINRVIQELGLDKVADSKVGTQFIRGVSGGERKRTSIGMELITDPSILFLDEPTTGLDSSTANAVLLLLKRMSKQGRTIIFSIHQPRYSIFKLFDSLTLLASGRLMFHGPAQEALGYFESAGYHCEAYNNPADFFLDIINGDSTAVALNREEDFKATEIIEPSKQDKPLIEKLAEIYVNSSFYKETKAELHQLSGGEKKKKITVFKEISYTTSFCHQLRWVSKRSFKNLLGNPQASIAQIIVTVVLGLVIGAIYFGLKNDSTGIQNRAGVLFFLTTNQCFSSVSAVELFVVEKKLFIHEYISGYYRVSSYFLGKLLSDLLPMRMLPSIIFTCIVYFMLGLKPKADAFFVMMFTLMMVAYSASSMALAIAAGQSVVSVATLLMTICFVFMMIFSGLLVNLTTIASWLSWLQYFSIPRYGFTALQHNEFLGQNFCPGLNATGNNPCNYATCTGEEYLVKQGIDLSPWGLWKNHVALACMIVIFLTIAYLKLLFLKKYS
B9: TOMM22 (protein, UniProt Q9NS69 2-142, looked up)
Mitochondrial import receptor …: AAAVAAAGAGEPQSPDELLPKGDAEKPEEELEEDDDEELDETLSERLWGLTEMFPERVRSAAGATFDLSLFVAQKMYRFSRAALWIGTTSFMILVLPVVFETEKLQMEQQQQLQQRQILLGPNTGLSGGMPGALPSLPGKI
B10: SLC25A3 (protein, UniProt Q00325 50-362, looked up)
Solute carrier family 25 …: AVEEQYSCDYGSGRFFILCGLGGIISCGTTHTALVPLDLVKCRMQVDPQKYKGIFNGFSVTLKEDGVRGLAKGWAPTFLGYSMQGLCKFGFYEVFKVLYSNMLGEENTYLWRTSLYLAASASAEFFADIALAPMEAAKVRIQTQPGYANTLRDAAPKMYKEEGLKAFYKGVAPLWMRQIPYTMMKFACFERTVEALYKFVVPKPRSECSKPEQLVVTFVAGYIAGVFCAIVSHPADSVVSVLNKEKGSSASLVLKRLGFKGVWKGLFARIIMIGTLTALQWFIYDSVKVYFRLPRPPPPEMPESLKKKLGLTQ
B11: HACD3 (protein, UniProt Q9P035 1-362, looked up)
Very-long-chain …: MENQVLTPHVYWAQRHRELYLRVELSDVQNPAISITENVLHFKAQGHGAKGDNVYEFHLEFLDLVKPEPVYKLTQRQVNITVQKKVSQWWERLTKQEKRPLFLAPDFDRWLDESDAEMELRAKEEERLNKLRLESEGSPETLTNLRKGYLFMYNLVQFLGFSWIFVNLTVRFCILGKESFYDTFHTVADMMYFCQMLAVVETINAAIGVTTSPVLPSLIQLLGRNFILFIIFGTMEEMQNKAVVFFVFYLWSAIEIFRYSFYMLTCIDMDWKVLTWLRYTLWIPLYPLGCLAEAVSVIQSIPIFNETGRFSFTLPYPVKIKVRFSFFLQIYLIMIFLGLYINFRHLYKQRRRRYGQKKKKIH

test system: GFP-14-3-3β and its binding proteins; test: GFP-14-3-3β co-IP with LC-MS/MS label-free quantification, untreated versus PP1c-treated; design: species or system human; conditions: PP1 vs untreated; label-free quantification

Row | Molecule | Difference (log2), PP1 vs untreated [log2]
1 | B1 | 1.045
2 | B2 | 0.9496
3 | B3 | 0.991
4 | B4 | 1.002
5 | B5 | 1.025
6 | B6 | 1.03
7 | B7 | 1.003
8 | B8 | 0.9597
9 | B9 | 0.9341
10 | B10 | 1.025
11 | B11 | 0.9389

test system: GFP-14-3-3β; test: GFP-14-3-3β co-IP with LC-MS/MS, untreated GFP-14-3-3β versus GFP control (14-3-3 interactome); assay type: binding, human; conditions: untreated vs GFP; label-free quantification

Row | Molecule | Difference (log2), untreated vs GFP [log2]
12 | B1 | 1.029
13 | B2 | -0.8261
14 | B3 | 0.002451
15 | B4 | 0.04558
16 | B5 | -0.3627
17 | B6 | -0.2637
18 | B7 | 1.613
19 | B8 | -0.7786
20 | B9 | -0.3585
21 | B10 | 1.257
22 | B11 | -0.3489
